Reference: article PMC9427990, “Dynamic mechanisms of CRISPR interference by Escherichia coli CRISPR-Cas3”
Changes are numbered by the printed parent chain.

B1: EMX1-AAG-32-bio (n32, paired PAM) (dsDNA)
DNA 1: TGGCGCATTGCCACGAAGCAGGCCAATGGGGAGGACATCGATGTCACCTCCAATGACTAG
DNA 2: CTAGTCATTGGAGGTGACATCGATGTCCTCCCCATTGGCCTGCTTCGTGGCAATGCGCCA
B2: EMX1-AAG-0-bio (n0) (dsDNA)
DNA 1: TGGCGCATTGCCACGAAGACTTAACCGTTTTCTTCACGATCGTGACAAGACAATGACTAG
DNA 2: CTAGTCATTGTCTTGTCACGATCGTGAAGAAAACGGTTAAGTCTTCGTGGCAATGCGCCA
B3: EMX1-AAG-6-bio (n6) (dsDNA)
DNA 1: B2 DNA 1 with A19C, C20A, T21G, T22G, A23C, A24C
DNA 2: B2 DNA 2 with T37G, T38G, A39C, A40C, G41T, T42G
B4: EMX1-AAG-12-bio (n12) (dsDNA)
DNA 1: TGGCGCATTGCCACGAAGCAGGCCAATGGGTCTTCACGATCGTGACAAGACAATGACTAG
DNA 2: CTAGTCATTGTCTTGTCACGATCGTGAAGACCCATTGGCCTGCTTCGTGGCAATGCGCCA

Target: T1, EcoCascade-crRNA(EMX1) (Escherichia coli, UniProt Q46901;P76632;Q46899;Q46898;Q46897 1-502;1-160;2-363;1-224;2-199)
T1 sequence 1: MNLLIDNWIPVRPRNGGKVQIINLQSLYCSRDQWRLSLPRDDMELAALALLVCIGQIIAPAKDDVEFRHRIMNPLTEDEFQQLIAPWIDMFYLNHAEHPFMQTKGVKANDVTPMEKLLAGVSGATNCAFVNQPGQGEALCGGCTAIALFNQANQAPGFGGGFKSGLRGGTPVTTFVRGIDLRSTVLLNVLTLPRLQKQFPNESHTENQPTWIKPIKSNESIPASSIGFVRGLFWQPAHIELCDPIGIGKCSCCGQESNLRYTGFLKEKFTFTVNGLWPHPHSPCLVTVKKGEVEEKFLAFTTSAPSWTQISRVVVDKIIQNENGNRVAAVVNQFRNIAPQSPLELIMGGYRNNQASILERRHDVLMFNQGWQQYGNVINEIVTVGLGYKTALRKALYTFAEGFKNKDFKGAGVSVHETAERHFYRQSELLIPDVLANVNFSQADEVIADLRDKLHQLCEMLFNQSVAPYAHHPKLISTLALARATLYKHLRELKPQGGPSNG
T1 sequence 2: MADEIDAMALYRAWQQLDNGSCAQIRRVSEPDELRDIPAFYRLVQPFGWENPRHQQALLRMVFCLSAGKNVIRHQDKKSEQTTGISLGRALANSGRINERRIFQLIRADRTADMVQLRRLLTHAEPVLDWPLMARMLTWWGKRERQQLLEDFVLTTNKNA
T1 sequence 3: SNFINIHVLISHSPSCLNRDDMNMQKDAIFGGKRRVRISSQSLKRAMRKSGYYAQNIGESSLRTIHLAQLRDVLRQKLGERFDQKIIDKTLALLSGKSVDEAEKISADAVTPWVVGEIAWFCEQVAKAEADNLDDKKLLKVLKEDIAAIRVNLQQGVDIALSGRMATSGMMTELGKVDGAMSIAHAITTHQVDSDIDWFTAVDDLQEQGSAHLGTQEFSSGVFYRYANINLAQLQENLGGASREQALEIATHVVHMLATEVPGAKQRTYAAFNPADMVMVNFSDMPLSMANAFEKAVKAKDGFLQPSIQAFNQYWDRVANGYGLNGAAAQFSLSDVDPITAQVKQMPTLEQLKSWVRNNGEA
T1 sequence 4: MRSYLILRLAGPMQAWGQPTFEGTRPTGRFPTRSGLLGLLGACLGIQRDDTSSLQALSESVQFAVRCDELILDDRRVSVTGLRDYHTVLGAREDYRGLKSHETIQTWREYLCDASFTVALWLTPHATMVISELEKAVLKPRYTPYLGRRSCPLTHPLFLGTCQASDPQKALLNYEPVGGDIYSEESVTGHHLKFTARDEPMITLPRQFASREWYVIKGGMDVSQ
T1 sequence 5: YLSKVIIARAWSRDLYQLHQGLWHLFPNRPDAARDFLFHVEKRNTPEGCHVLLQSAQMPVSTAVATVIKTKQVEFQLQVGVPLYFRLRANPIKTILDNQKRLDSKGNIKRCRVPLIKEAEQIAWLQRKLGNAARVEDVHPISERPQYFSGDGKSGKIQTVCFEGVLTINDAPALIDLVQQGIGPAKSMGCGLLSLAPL
Experiment: BLI; BLI: PBS, 0.01% Tween 20, 0.02% BSA, 20 uM EcoCascade analyte, biotinylated DNA on streptavidin; temperature not stated; EMSA conditions not in material
Conditions: protein: recombinant; tags: hexahistidine tag on Cas11, removed with HRV3C; copies: 1;2;6;1;1; label: Biotin-TEG; blunt

Binder | binding result
B1 | binds
B2 | no binding
B3 | no binding
B4 | no binding
